This data set deals with the molecule itself. Nature of the data set: SEC; Superdex 200 Increase 10/300 GL, 100 mM sodium phosphate pH 7.5, 100 mM NaCl, 10 mM beta-mercaptoethanol; standards aldolase (158 kDa) and conalbumin (75 kDa); AtOXC eluted at 13.0 mL. A general note: SEC sorts molecules by how far they enter the pores of the column.

B1: Arabidopsis oxalyl-CoA decarboxylase (AtOXC), His-tagged (enzyme, Arabidopsis thaliana, UniProt Q9LF46 1-572, looked up)
chain: MADKSETTPPSIDGNVLVAKSLSHLGVTHMFGVVGIPVTSLASRAMALGIRFIAFHNEQSAGYAASAYGYLTGKPGILLTVSGPGCVHGLAGLSNAWVNTWPMVMISGSCDQRDVGRGDFQELDQIEAVKAFSKLSEKAKDVREIPDCVSRVLDRAVSGRPGGCYLDIPTDVLRQKISESEADKLVDEVERSRKEEPIRGSLRSEIESAVSLLRKAERPLIVFGKGAAYSRAEDELKKLVEITGIPFLPTPMGKGLLPDTHEFSATAARSLAIGKCDVALVVGARLNWLLHFGESPKWDKDVKFILVDVSEEEIELRKPHLGIVGDAKTVIGLLNREIKDDPFCLGKSNSWVESISKKAKENGEKMEIQLAKDVVPFNFLTPMRIIRDAILAVEGPSPVVVSEGANTMDVGRSVLVQKEPRTRLDAGTWGTMGVGLGYCIAAAVASPDRLVVAVEGDSGFGFSAMEVETLVRYNLAVVIIVFNNGGVYGGDRRGPEEISGPHKEDPAPTSFVPNAGYHKLIEAFGGKGYIVETPDELKSALAESFAARKPAVVNVIIDPFAGAESGRLQHKN
notes: Oxalyl-CoA decarboxylase AtOXC, Arabidopsis thaliana, locus At5g17380; full-length cDNA; monomer about 61.5 kDa; No removal of the tag is reported; also called His-AtOXC; His-tagged AtOXC; source: E. coli BLR (DE3), purified (nickel-nitriloacetic acid agarose, desalted on Sephadex G-25)
Consider B1, for which the stoichiometry N (usually a count of units in the complex or per binding partner) amounted to 2.

The values are drawn from publication PMC8004701, “An Arabidopsis Oxalyl-CoA Decarboxylase, AtOXC, Is Important for Oxalate Catabolism in Plants” (International Journal of Molecular Sciences, 2021).
